Data from patent publication US20160108128A1 (CANCER RESEARCH TECHNOLOGY, published 2016).

B1: J1-183D variant 1 (antibody, human IgG1, V domains shown)
VH: QVQLVQSGAELKKPGASVKVSCKVSGYAFTDYAIHWIRQAPGQGLEWMGIINTYYGDSKYNQKFKDRVTMTVDKSTSTAYMELSSLRSEDTAVYYCARGYDGFAYWGQGTLVTVSS
VL: DIQMTQSPSSLSASVGDRVTITCRTSENIYSYLTWYQQKPGKAPKLLVYNAKILAAGVPSRFSGSGSGTDFTLTISSLQPEDFATYYCQHHYDIPWTFGGGTKLEIKR
notes: human IgG1; also called J1-183DV1; V1
B2: J1-183D variant 2 (antibody, human IgG1, V domains shown)
VH: QVQLVQSGAELKKPGASVKVSCKVSGYAFTDYAIHWIRQAPGQGLEWMGIINTYYGDSKYAQKFQGRVTMTVDTSTSTAYMELSSLRSEDTAVYYCARGYDGFAYWGQGTLVTVSS
VL: DIQMTQSPSSLSASVGDRVTITCRTSENIYSYLTWYQQKPGKAPKLLVYNAKILAAGVPSRFSGSGSGTDFTLTISSLQPEDFATYYCQHHYDIPWTFGGGTKLEIKR
notes: human IgG1; also called J1-183DV2; V2
B3: J1-183D variant 3 (antibody, human IgG1, V domains shown)
VH: QVQLVQSGAELKKPGASVKVSCKVSGYAFTDYAIHWVRQAPGQGLEWMGIINTYYGDSKYAQKFQGRVTMTVDTSTSTAYMELSSLRSEDTAVYYCARGYDGFAYWGQGTLVTVSS
VL: DIQMTQSPSSLSASVGDRVTITCRTSENIYSYLTWYQQKPGKAPKLLVYNAKILAAGVPSRFSGSGSGTDFTLTISSLQPEDFATYYCQHHYDIPWTFGGGTKLEIKR
notes: human IgG1; also called J1-183DV3; V3
B4: J1-183D variant 4 (antibody, human IgG1, V domains shown)
VH: QVQLVQSGAEVKKPGASVKVSCKASGYTFTDYAIHWVRQAPGQGLEWMGIINTYYGDSKYAQKFQGRVTMTVDTSTSTAYMELSSLRSEDTAVYYCARGYDGFAYWGQGTLVTVSS
VL: DIQMTQSPSSLSASVGDRVTITCRTSENIYSYLTWYQQKPGKAPKLLVYNAKILAAGVPSRFSGSGSGTDFTLTISSLQPEDFATYYCQHHYDIPWTFGGGTKLEIKR
notes: human IgG1; also called J1-183DV4; V4
B5: J1-183D variant 5 (antibody, human IgG1, V domains shown)
VH: QVQLVQSGAELKKPGASVKVSCKVSGYAFTDYAIHWIRQAPGQGLEWMGIINTYYGDSKYNQKFKDRVTMTVDKSTSTAYMELSSLRSEDTAVYYCARGYDGFAYWGQGTLVTVSS
VL: DIQMTQSPSSLSASVGDRVTITCRTSENIYSYLTWYQQKPGKAPKLLIYNAKTLASGVPSRFSGSGSGTDFTLTISSLQPEDFATYYCQHHYDIPWTFGGGTKLEIKR
notes: human IgG1; also called J1-183DV5; V5
B6: J1-183D variant 6 (antibody, human IgG1, V domains shown)
VH: QVQLVQSGAELKKPGASVKVSCKVSGYAFTDYAIHWIRQAPGQGLEWMGIINTYYGDSKYAQKFQGRVTMTVDTSTSTAYMELSSLRSEDTAVYYCARGYDGFAYWGQGTLVTVSS
VL: DIQMTQSPSSLSASVGDRVTITCRTSENIYSYLTWYQQKPGKAPKLLIYNAKTLASGVPSRFSGSGSGTDFTLTISSLQPEDFATYYCQHHYDIPWTFGGGTKLEIKR
notes: human IgG1; also called J1-183DV6; V6
B7: J1-183D variant 7 (antibody, human IgG1, V domains shown)
VH: QVQLVQSGAELKKPGASVKVSCKVSGYAFTDYAIHWVRQAPGQGLEWMGIINTYYGDSKYAQKFQGRVTMTVDTSTSTAYMELSSLRSEDTAVYYCARGYDGFAYWGQGTLVTVSS
VL: DIQMTQSPSSLSASVGDRVTITCRTSENIYSYLTWYQQKPGKAPKLLIYNAKTLASGVPSRFSGSGSGTDFTLTISSLQPEDFATYYCQHHYDIPWTFGGGTKLEIKR
notes: human IgG1; also called J1-183DV7; V7
B8: J1-183D variant 8 (antibody, human IgG1, V domains shown)
VH: QVQLVQSGAEVKKPGASVKVSCKASGYTFTDYAIHWVRQAPGQGLEWMGIINTYYGDSKYAQKFQGRVTMTVDTSTSTAYMELSSLRSEDTAVYYCARGYDGFAYWGQGTLVTVSS
VL: DIQMTQSPSSLSASVGDRVTITCRTSENIYSYLTWYQQKPGKAPKLLIYNAKTLASGVPSRFSGSGSGTDFTLTISSLQPEDFATYYCQHHYDIPWTFGGGTKLEIKR
notes: human IgG1; also called J1-183DV8; V8
B9: J1-183D variant 9 (antibody, human IgG1, V domains shown)
VH: QVQLVQSGAELKKPGASVKVSCKVSGYAFTDYAIHWIRQAPGQGLEWMGIINTYYGDSKYNQKFKDRVTMTVDKSTSTAYMELSSLRSEDTAVYYCARGYDGFAYWGQGTLVTVSS
VL: DIQMTQSPSSLSASVGDRVTITCRTSENIYSYLTWYQQKPGKAPKLLIYNAKILDSGVPSRFSGSGSGTDFTLTISSLQPEDFATYYCQHHYDIPWTFGGGTKLEIKR
notes: human IgG1; also called J1-183DV9; V9
B10: J1-183D variant 11 (antibody, human IgG1, V domains shown)
VH: QVQLVQSGAELKKPGASVKVSCKVSGYAFTDYAIHWVRQAPGQGLEWMGIINTYYGDSKYAQKFQGRVTMTVDTSTSTAYMELSSLRSEDTAVYYCARGYDGFAYWGQGTLVTVSS
VL: DIQMTQSPSSLSASVGDRVTITCRTSENIYSYLTWYQQKPGKAPKLLIYNAKILDSGVPSRFSGSGSGTDFTLTISSLQPEDFATYYCQHHYDIPWTFGGGTKLEIKR
notes: human IgG1; also called J1-183DV11; V11
B11: J1-183D variant 12 (antibody, human IgG1, V domains shown)
VH: QVQLVQSGAEVKKPGASVKVSCKASGYTFTDYAIHWVRQAPGQGLEWMGIINTYYGDSKYAQKFQGRVTMTVDTSTSTAYMELSSLRSEDTAVYYCARGYDGFAYWGQGTLVTVSS
VL: DIQMTQSPSSLSASVGDRVTITCRTSENIYSYLTWYQQKPGKAPKLLIYNAKILDSGVPSRFSGSGSGTDFTLTISSLQPEDFATYYCQHHYDIPWTFGGGTKLEIKR
notes: human IgG1; also called J1-183DV12; V12
B12: J1-183D variant 13 (antibody, human IgG1, V domains shown)
VH: QVQLVQSGAELKKPGASVKVSCKVSGYAFTDYAIHWIRQAPGQGLEWMGIINTYYGDSKYNQKFKDRVTMTVDKSTSTAYMELSSLRSEDTAVYYCARGYDGFAYWGQGTLVTVSS
VL: DIQMTQSPSSLSASVGDRVTITCRTSENIYSYLTWYQQKPGKAPKLLIYHAKILDSGVPSRFSGSGSGTDFTLTISSLQPEDFATYYCQHHYDIPWTFGGGTKLEIKR
notes: human IgG1; also called J1-183DV13; V13
B13: J1-183D variant 14 (antibody, human IgG1, V domains shown)
VH: QVQLVQSGAELKKPGASVKVSCKVSGYAFTDYAIHWIRQAPGQGLEWMGIINTYYGDSKYAQKFQGRVTMTVDTSTSTAYMELSSLRSEDTAVYYCARGYDGFAYWGQGTLVTVSS
VL: DIQMTQSPSSLSASVGDRVTITCRTSENIYSYLTWYQQKPGKAPKLLIYHAKILDSGVPSRFSGSGSGTDFTLTISSLQPEDFATYYCQHHYDIPWTFGGGTKLEIKR
notes: human IgG1; also called J1-183DV14; V14
B14: J1-183D variant 15 (antibody, human IgG1, V domains shown)
VH: QVQLVQSGAELKKPGASVKVSCKVSGYAFTDYAIHWVRQAPGQGLEWMGIINTYYGDSKYAQKFQGRVTMTVDTSTSTAYMELSSLRSEDTAVYYCARGYDGFAYWGQGTLVTVSS
VL: DIQMTQSPSSLSASVGDRVTITCRTSENIYSYLTWYQQKPGKAPKLLIYHAKILDSGVPSRFSGSGSGTDFTLTISSLQPEDFATYYCQHHYDIPWTFGGGTKLEIKR
notes: human IgG1; also called J1-183DV15; V15
B15: J1-183D variant 16 (antibody, human IgG1, V domains shown)
VH: QVQLVQSGAEVKKPGASVKVSCKASGYTFTDYAIHWVRQAPGQGLEWMGIINTYYGDSKYAQKFQGRVTMTVDTSTSTAYMELSSLRSEDTAVYYCARGYDGFAYWGQGTLVTVSS
VL: DIQMTQSPSSLSASVGDRVTITCRTSENIYSYLTWYQQKPGKAPKLLIYHAKILDSGVPSRFSGSGSGTDFTLTISSLQPEDFATYYCQHHYDIPWTFGGGTKLEIKR
notes: human IgG1; also called J1-183DV16; V16
B16: J1-65D variant 6 (antibody, human IgG1, V domains shown)
VH: QVQLVQSGAELKKPGSSVKVSCKASGYTFTDYEMHWVRQAPGQGLEWMGAIQPGGGGTAYAQKFKGRVTLTADKSTSTAYMELSSLRSEDTAVYYCTRRGYDDYPFAYWGQGTLVTVSS
VL: DIQMTQSPSSLSASVGDRVTITCRASGNIHNYLAWYQQKPGKAPKLLIYNAKTLADAVPSRFSGSGSGTDYTLTISSLQPEDFATYYCQHFWSAPWTFGGGTKLEIKR
notes: human IgG1; also called J1-65DV6; V6

What was measured:
[1] = molecular target: T1, J1 DSL-EGF3 soluble recombinant protein (human Jagged 1 amino acids 185-335) (human, UniProt P78504 185-335); experiment: affinity to the immunogen J1-DE3; method not stated
T1 construct: biotinylated in the CD46 ELISA; also called J1-DE3; DSL+EGF1-3
T1 sequence (P78504 185-335, form in doubt): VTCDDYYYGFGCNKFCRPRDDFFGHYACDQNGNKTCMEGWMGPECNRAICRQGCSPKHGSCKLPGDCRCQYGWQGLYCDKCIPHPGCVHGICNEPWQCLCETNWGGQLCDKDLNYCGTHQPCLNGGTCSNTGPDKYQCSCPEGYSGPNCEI

[2] = molecular target: T2, human Jagged 2, full length, on HEK293 cells (human, UniProt Q9Y219 24-1238); experiment: FACS, 293-JAG2 cells, anti-human-APC
T2 construct: whole, on cells; also called J2; hJ2
T2 sequence (Q9Y219 24-1238): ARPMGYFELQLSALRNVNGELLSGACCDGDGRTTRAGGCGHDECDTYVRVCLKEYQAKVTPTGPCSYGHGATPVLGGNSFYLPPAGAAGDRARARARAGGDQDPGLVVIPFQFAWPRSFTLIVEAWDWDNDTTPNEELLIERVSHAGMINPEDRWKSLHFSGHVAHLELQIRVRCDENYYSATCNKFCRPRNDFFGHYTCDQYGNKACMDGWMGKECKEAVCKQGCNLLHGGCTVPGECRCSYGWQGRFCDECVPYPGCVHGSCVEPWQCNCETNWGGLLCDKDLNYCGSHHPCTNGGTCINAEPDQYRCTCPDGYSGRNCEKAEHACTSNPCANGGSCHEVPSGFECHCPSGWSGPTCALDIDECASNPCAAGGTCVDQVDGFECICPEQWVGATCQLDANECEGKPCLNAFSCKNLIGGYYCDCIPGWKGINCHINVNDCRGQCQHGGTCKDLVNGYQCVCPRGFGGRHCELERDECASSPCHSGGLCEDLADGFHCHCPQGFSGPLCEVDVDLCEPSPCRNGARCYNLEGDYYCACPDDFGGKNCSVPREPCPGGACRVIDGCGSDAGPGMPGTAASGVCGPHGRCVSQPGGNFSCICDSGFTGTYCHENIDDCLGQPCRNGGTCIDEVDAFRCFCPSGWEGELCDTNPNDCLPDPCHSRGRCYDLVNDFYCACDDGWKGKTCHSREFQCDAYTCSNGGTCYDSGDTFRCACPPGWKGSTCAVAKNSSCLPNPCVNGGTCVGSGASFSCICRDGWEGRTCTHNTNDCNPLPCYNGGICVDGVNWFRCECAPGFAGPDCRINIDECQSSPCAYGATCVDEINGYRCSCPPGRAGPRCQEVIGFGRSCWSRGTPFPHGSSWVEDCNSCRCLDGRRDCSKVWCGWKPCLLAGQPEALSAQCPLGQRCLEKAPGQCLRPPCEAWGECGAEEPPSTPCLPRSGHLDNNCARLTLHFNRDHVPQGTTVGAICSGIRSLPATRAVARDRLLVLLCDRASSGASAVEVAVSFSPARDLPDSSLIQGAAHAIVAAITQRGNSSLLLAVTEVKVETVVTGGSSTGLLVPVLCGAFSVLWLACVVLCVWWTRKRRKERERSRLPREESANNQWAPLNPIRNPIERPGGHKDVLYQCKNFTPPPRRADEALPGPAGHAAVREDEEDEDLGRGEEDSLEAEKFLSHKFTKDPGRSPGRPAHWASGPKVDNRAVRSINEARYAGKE
Method: FIG. 18. […] Samples were analysed by FACS and the mean fluorescence intensities (MFI) were plotted. […] With the exception of J1-65D variants 13-16, all the remaining antibodies effectively bound the human J1 protein.
(§1) HEK293 cells transfected with human J1, J2 or FLAG-EGFP-tagged DSL-EGF3 constructs, B16F10 cells transfected with human DLL4 or mouse J1, and human cancer cell lines, were stained with either purified anti-J1 antibodies at 10 μg/ml diluted in FACS wash buffer (2% FBS in PBS+0.1% sodium azide) or neat hybridoma supernatants followed by a allophycocyanin (APC)-conjugated secondary antibody at 1:200 dilution: for murine primary antibodies, used goat anti-mouse-APC (eBioscience); for humanised and chimeric antibodies used goat anti-human IgG (H+L) secondary antibody (Jackson ImmunoResearch Laboratories). After washing, samples were fixed with 1% paraformaldehyde (in PBS) and acquired with a FACSCalibur. FACS data were analysed with FlowJo software (TreeStar Inc.).

[3] = molecular target: T3, murine Jagged 1, full length, on B16F10 cells (mouse, UniProt Q9QXX0 34-1218); experiment: FACS, B16F10-mJAG1 cells, anti-human-APC
T3 construct: whole, on cells; GFP co-expressed; also called mJ1; B16F10-mJAG1
T3 sequence (Q9QXX0 34-1218, one chain of several): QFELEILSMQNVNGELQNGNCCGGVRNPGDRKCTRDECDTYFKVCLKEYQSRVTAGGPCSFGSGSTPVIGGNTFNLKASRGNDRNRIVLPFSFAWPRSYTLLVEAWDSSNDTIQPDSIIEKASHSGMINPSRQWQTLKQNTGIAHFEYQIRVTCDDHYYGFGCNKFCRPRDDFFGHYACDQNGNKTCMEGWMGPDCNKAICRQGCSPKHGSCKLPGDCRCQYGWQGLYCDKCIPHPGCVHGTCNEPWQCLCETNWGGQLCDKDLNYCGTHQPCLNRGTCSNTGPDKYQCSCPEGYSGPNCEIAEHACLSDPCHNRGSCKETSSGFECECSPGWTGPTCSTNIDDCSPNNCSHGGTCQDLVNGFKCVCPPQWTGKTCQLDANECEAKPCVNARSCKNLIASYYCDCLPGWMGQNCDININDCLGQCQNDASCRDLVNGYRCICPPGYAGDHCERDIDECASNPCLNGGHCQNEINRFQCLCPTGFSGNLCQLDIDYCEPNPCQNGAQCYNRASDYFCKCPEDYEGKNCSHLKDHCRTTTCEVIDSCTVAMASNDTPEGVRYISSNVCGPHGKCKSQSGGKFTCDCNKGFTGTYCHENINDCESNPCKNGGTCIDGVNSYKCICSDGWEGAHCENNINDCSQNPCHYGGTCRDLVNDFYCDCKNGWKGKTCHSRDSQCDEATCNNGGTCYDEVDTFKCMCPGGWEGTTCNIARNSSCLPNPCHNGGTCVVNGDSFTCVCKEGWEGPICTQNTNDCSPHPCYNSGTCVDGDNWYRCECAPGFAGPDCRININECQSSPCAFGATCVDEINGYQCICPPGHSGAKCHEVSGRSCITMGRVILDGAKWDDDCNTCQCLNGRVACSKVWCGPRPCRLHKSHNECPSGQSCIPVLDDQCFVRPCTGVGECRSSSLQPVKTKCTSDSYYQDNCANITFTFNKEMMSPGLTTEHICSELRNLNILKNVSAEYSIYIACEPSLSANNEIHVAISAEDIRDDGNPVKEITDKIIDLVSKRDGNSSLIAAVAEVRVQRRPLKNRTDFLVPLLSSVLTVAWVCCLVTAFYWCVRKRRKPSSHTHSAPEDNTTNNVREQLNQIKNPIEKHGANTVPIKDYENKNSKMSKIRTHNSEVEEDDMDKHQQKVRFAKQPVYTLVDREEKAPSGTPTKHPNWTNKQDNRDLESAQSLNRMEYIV
Method: FIG. 19. […] Samples were analysed by FACS and the mean fluorescence intensities (MFI) were plotted.
as §1

Row | Binder | Kd [1] | binding result [2] | binding result [3]
1 | B1 | 0.77 nM | no binding (tested: 10 ug/ml) | no binding (tested: 10 ug/ml)
2 | B2 | 2.19 nM | no binding (tested: 10 ug/ml) | no binding (tested: 10 ug/ml)
3 | B3 | 2.55 nM | no binding (tested: 10 ug/ml) | no binding (tested: 10 ug/ml)
4 | B4 | 2.76 nM | no binding (tested: 10 ug/ml) | no binding (tested: 10 ug/ml)
5 | B5 | 2.75 nM | no binding (tested: 10 ug/ml) | no binding (tested: 10 ug/ml)
6 | B6 | 1.39 nM | no binding (tested: 10 ug/ml) | no binding (tested: 10 ug/ml)
7 | B7 | 1.26 nM | no binding (tested: 10 ug/ml) | no binding (tested: 10 ug/ml)
8 | B8 | 1.48 nM | no binding (tested: 10 ug/ml) | no binding (tested: 10 ug/ml)
9 | B9 | 0.68 nM | no binding (tested: 10 ug/ml) | no binding (tested: 10 ug/ml)
10 | B10 | 2.82 nM | no binding (tested: 10 ug/ml) | no binding (tested: 10 ug/ml)
11 | B11 | 2.61 nM | no binding (tested: 10 ug/ml) | no binding (tested: 10 ug/ml)
12 | B12 | 1.5 nM | no binding (tested: 10 ug/ml) | no binding (tested: 10 ug/ml)
13 | B13 | 3.91 nM | no binding (tested: 10 ug/ml) | no binding (tested: 10 ug/ml)
14 | B14 | 5.47 nM | no binding (tested: 10 ug/ml) | no binding (tested: 10 ug/ml)
15 | B15 | 4.86 nM | no binding (tested: 10 ug/ml) | no binding (tested: 10 ug/ml)
16 | B16 | 0.223 nM | no binding (tested: 10 ug/ml) | no binding (tested: 10 ug/ml)
